For one assay, the target named is GTPγS·GST-H-Ras (Homo sapiens (Human), UniProt P01112). Briefly: GST-small G-protein glutathione-Sepharose affinity column.
The next assay deals with GTPγS·GST-Rac1 (Homo sapiens (Human), UniProt P63000). Described as above.
The target in the next assay is GST (Schistosoma japonicum (Blood fluke), UniProt P08515 = GST). The assay is described as follows: GST-small G-protein glutathione-Sepharose affinity column, SDS-PAGE and silver staining.

B1: bovine Rho-kinase (enzyme)
chain: MSRPPPTGKMPGAPEAVSGDGAGASRQRKLEALIRDPRSPINVESLLDGLNPLVLDLDFPALRKNKNIDNFLNRYEKIVKKIRGLQMKAEDYDVVKVIGRGAFGEVQLVRHKASQKVYAMKLLSKFEMIKRSDSAFFWEERDIMAFANSPWVVQLFCAFQDDKYLYMVMEYMPGGDLVNLMSNYDVPEKWAKFYTAEVVLALDAIHSMGLIHRDVKPDNMLLDKHGHLKLADFGTCMKMDETGMVHCDTAVGTPDYISPEVLKSQGGDGYYGRECDWWSVGVFLFEMLVGDTPFYADSLVGTYSKIMDHKNSLCFPEDAEISKHAKNLICAFLTDREVRLGRNGVEEIKQHPFFKNDQWNWDNIRETAAPVVPELSSDIDSSNFDDIEDDKGDVETFPIPKAFVGNQLPFIGFTYYRENLLLSDSPSCKENDSIQSRKNEESQEIQKKLYTLEEHLSTEIQAKEELEQKCKSVNTRLEKVAKELEEEITLRKNVESTLRQLEREKALLQHKNAEYQRKADHEADKKRNLENDVNSLKDQLEDLKKRNQNSQISTEKVNQLQRQLDETNALLRTESDTAARLRKTQAESSKQIQQLESNNRDLQDKNCLLETAKLKLEKEFINLQSVLESERRDRTHGSEIINDLQGRISGLEEDVKNGKILLAKVELEKRQLQERFTDLEKEKNNMEIDMTYQLKVIQQSLEQEETEHKATKARLADKNKIYESIEEAKSEAMKEMEKKLSEERTLKQKVENLLLEAEKRCSILDCDLKQSQQKINELLKQKDVLNEDVRNLTLKIEQETQKRCLTQNDLKMQTQQVNTLKMSEKQLKQENNHLLEMKMSLEKQNAELRKERQDADGQMKELQDQLEAEQYFSTLYKTQVRELKEECEEKTKLCKELQQKKQELQDERDSLAAQLEITLTKADSEQLARSIAEEQYSDLEKEKIMKELEIKEMMARHKQELTEKDATIASLEETNRTLTSDVANLANEKEELNNKLKEAQEQLSRLKDEEISAAAIKAQFEKQLLTERTLKTQAVNKLAEIMNRKEPVKRGNDTDVRRKEKENRKLHMELKSEREKLTQQMIKYQKELNEMQAQIAEESQIRIELQMTLDSKDSDIEQLRSQLQALHIGLDSSSIGSGPGDTEADDGFPESRLEGWLSLPVRNNTKKFGWVKKYVIVSSKKILFYDSEQDKEQSNPYMVLDIDKLFHVRPVTQTDVYRADAKEIPRIFQILYANEGESKKEQEFPVEPVGEKSNYICHKGHEFIPTLYHFPTNCEACMKPLWHMFKPPPALECRRCHIKCHKDHMDKKEEIIAPCKVYYDISSAKNLLLLANSTEEQQKWVSRLVKKIPKKPPAPDPFARSSPRTSMKIQQNQSIRRPSRQLAPNKPS
B1: the binding result with GTPγS·GST-H-Ras was “no binding”; with GTPγS·GST-Rac1, “no binding”; with GST, “no binding (tested: 24 nmol on the column)”.

Values taken from US5906819, “Rho target protein Rho-kinase” (Kirin Beer Kabushiki Kaisha, dated 1999).
